Assay [1] deals with CML conjugated to KLH (CML-KLH). Nature of the assay: direct binding ELISA, CML-KLH coat 1 ug/mL, antibody at 5.56 ug/mL.
The target is the same in assay [2]. Nature of the assay: direct binding ELISA, CML-KLH coat 1 ug/mL, antibody at 1.85 ug/mL.
The target is the same in assay [3]. Put plainly: direct binding ELISA, CML-KLH coat 1 ug/mL, antibody at 0.62 ug/mL.
For assay [4] the target is unchanged. Put plainly: direct binding ELISA, CML-KLH coat 1 ug/mL, antibody at 0.21 ug/mL.
For assay [5] the target is unchanged. Put plainly: direct binding ELISA, CML-KLH coat 1 ug/mL, antibody at 50 ug/mL.
Assay [6] has the same target. Nature of the assay: direct binding ELISA, CML-KLH coat 1 ug/mL, antibody at 16.67 ug/mL.
Assay [7] has the same target. Nature of the assay: direct binding ELISA, CML-KLH coat 1 ug/mL, antibody at 0.07 ug/mL.

For “anti-carboxymethyl lysine (CML) antibody (R&D Systems, MAB3247)”, the OD450 in assay [1] stood at 0.165 OD450; in assay [2], 0.092 OD450; in assay [3], 0.083 OD450; in assay [4] it was 0.075 OD450; in assay [5] it was 0.462 OD450; in assay [6], 0.312 OD450. In assay [7], this substance gave an OD450 of 0.086 OD450.

For the origin of these results see patent US20200150131A1.
